{"source": "patent US20180335433A1", "about": "“COMPOSITIONS TARGETING PKC-THETA AND USES AND METHODS OF TREATING PKC-THETA PATHOLOGIES, ADVERSE IMMUNE RESPONSES AND DISEASES” (La Jolla Institute for Allergy and Immunology, priority 2011, published 2018)", "key": {"[1]": {"test_system": "Naïve CD4+ T cells from B6 mice, Treg (FoxP3+) cells", "assay": "In vitro Treg (FoxP3+) differentiation of retrovirally transduced CD4+ T cells", "format": "cell-based, mouse", "settings": "Treg-polarizing conditions (IL-2+TGFβ), GFP+FoxP3+ cells", "procedure": "(§1) Naïve CD4+ T cells from B6 mice stimulated with anti-CD3 plus anti-CD28 mAbs and differentiated in vitro under Treg-polarizing conditions (IL-2+TGFβ) were retrovirally transduced with empty pMIG vector, or with the indicated PKCθ V3 vectors. Transduced (GFP+) cells were sorted and FoxP3+ cells were analyzed by intracellular staining.\nas §1, with “CD4^+” for “CD4+”, “(GFP+)” for “(GFP+) cells were sorted and”, “intracellular staining 8 hours after restimulation. Right panels represent cumulative data showing percentage of GFP+FoxP3+ cells by intracellular” for “intracellular”"}, "[2]": {"test_system": "NFAT reporter gene", "assay": "NFAT luciferase reporter assay in MCC-specific T hybridoma cells", "format": "cell-based", "procedure": "(FIG. 6A) OT-II CD4^+ T cells were infected with retrovirus expressing Myc-tagged V3 domain, V3 mutated at P330/1/4/6A (V3-4PA), or PR motif-deleted V3 (V3-ΔPR). Infected cells (green) were harvested, stimulated, and fixed. Conjugates were stained with anti-Myc plus a secondary Alexa 555-coupled antibody (orange), and anti-PKCθ plus a secondary Alexa 647-coupled antibody (red). Cells were analyzed as in FIG. 1A. (FIG. 6B) Quantitative analysis of the results shown in (FIG. 6A) from 30-50 T-APC conjugates. ** p<0.05. (FIG. 6C) MCC-specific T hybridoma cells were cotransfected with indicated vector, together with RE/AP-Luc and β-Gal reporter plasmids. Cells were stimulated and analyzed as in FIG. 1C. […] Cytokine-producing cells were analyzed by intracellular staining 8 h after restimulation. […] Normalized luciferase activity was determined in triplicates.\nThe CD28 response element (RE/AP)- or NFAT-luciferase (Luc) reporter genes have been described (Coudronniere, N. et al. Proc Natl Acad Sci USA 97, 3394-3399 (2000)). […] The cells were the lysed and Luc activity was quantitated and normalized to the activity of a cotransfected β-galactosidase (β-Gal) reporter gene.\nTo determine whether ectopic V3 expression also interfered with PKCθ-dependent TCR/CD28 signaling, the effects of V3 on activation of reporter genes and on T cell differentiation into effector Th cells were analyzed. […]"}, "[3]": {"test_system": "Th2-mediated lung inflammation", "assay": "Th2-mediated Ova-induced airway inflammation after adoptive transfer of transduced OT-II Th2 cells", "format": "in vivo, mouse", "settings": "transferred Th2 cells, aerosolized Ova 3 consecutive days", "excerpt": "(FIG. 7A-7D) OT-II CD4^+ T cells stimulated with anti-CD3 plus anti-CD28 mAbs and differentiated in vitro under Th2 (FIG. 7A-7C) or Th1 (FIG. 7D, 7E)-polarizing conditions were retrovitrally transduced with the same PKCθ V3 vectors as in FIG. 6. Sorted GFP^+ populations were adoptively transferred into naïve B6 mice, which were challenged with aerosolized Ova for 3 consecutive days. BAL fluid were obtained 1 d post-challenge and analyzed for total mononuclear cell infiltration (FIG. 7A, 7D) and cytokine expression using IL-4 (FIG. 7B), IL-5 (FIG. 7C) and IFN-γ (FIG. 7E) ELISA.\nCD4^+ T cells from OT-II B6 mice were isolated and cultured with plate-bound anti-CD3 (5 μg/ml), soluble anti-CD28 (2.5 μg/ml) and IL-2 (100 U/ml) under Th1 or Th2 polarizing conditions. The cells were retrovirally infected on days 2-4 and cultured for an additional 3 days. GFP^+ cells were sorted, and 1×10^6 cells were injected intravenously into naïve WT B6 mice. One day later, mice received aerosolized Ova (5 mg/ml in 20 ml PBS) for 30 min, once a day for 3 consecutive days, using ultrasonic nebulization. Mice were sacrificed 24 h after the last challenge and assessed for lung inflammation. Collection of BAL fluid and determination of cytokine levels were carried out as described (Salek-Ardakani, S. et al. J Immunol 173, 6440-6447 (2004)).\nThe above findings were extended to an in vivo antigen-specific inflammatory response in an airway inflammation model, using a T cell adoptive transfer system. Mice receiving OT-II Th2 cells transduced with an empty vector developed an inflammatory response by comparison with PBS-challenged control mice, as evidenced by a significant increase in the number of infiltrating leukocytes in the bronchoalveolar lavages (BAL) fluid (FIG. 7a) and in the levels of signature Th2 cytokines, IL-4 (FIG. 7b) and IL-5 (FIG. 7c)."}}, "data": [{"molecule": "V3 domain: amino acid 282-379 of human PKCθ with N-terminal Myc tag, expressed from pMIG retroviral vector (protein, left off: small tags and cut ends, amino acid 282-379 of human PKCθ with N-terminal Myc tag, expressed from pMIG retroviral vector) GINQKLMAEALAMIESTQQARCLRDTEQIFREGPVEIGLPCSIKNEARPPCLPTPGKREPQGISWESPLDEVDKMCHLPEPELNKERPSLQIKLKIED", "values": [{"measurement": "promotion of Treg differentiation", "setting": "[1]", "value": "~4", "unit": "fold"}, {"measurement": "inhibition of NFAT reporter gene activity stimulated by WT PKCθ", "setting": "[2]; coexpressed at increasing levels together with WT PKCθ", "value": "inhibited in a dose-dependent manner"}, {"measurement": "activation of NFAT reporter gene", "setting": "[2]; expression of the V3 alone", "value": "did not activate"}, {"measurement": "levels of Th2 cytokines (IL-4, IL-5) in BAL fluid", "setting": "[3]", "value": "to basal levels"}, {"measurement": "levels of infiltrating cells in BAL fluid", "setting": "[3]", "value": "to basal levels"}]}]}
